Test [1] has as its system HMGB1-induced TNF-α production in THP-1 cells. Description: HMGB1-induced TNF-α production in THP-1 cells. The note with it: 24 hours. Further details: dose or concentration left out as unconfirmed. It is filed as cell-based. The protocol:
HMGB1 has been reported to be a ligand for RAGE and the Toll-Like Receptors 2 and 4 (Park et al., J Biol Chem., 2004; 279(9):7370-7). All three of these receptors (RAGE, Toll-like receptor 2, and Toll-like receptor 4) are expressed on THP-1 cells (Parker, et al., J Immunol., 2004,172(8):4977-86.).
In this experiment, THP-1 cells were stimulated to produce TNF-α by HMGB1 ([…]) in the presence or absence of either TTP4000 or anti-RAGE antibodies. Under the conditions used in the assay, HMGB1 should be the only inducer of TNF-α.
HMGB 1 has been reported to be a ligand for RAGE and the Toll-Like Receptors 2 and 4 (Park et al., J. Biol Chem., 2004; 279(9):7370-7). All three of these receptors (RAGE, Toll-like receptor 2, and Toll-like receptor 4) are expressed on THP-1 cells (Parker, et al., J. Immunol., 2004,172(8):4977-86.).
In this experiment, THP-1 cells were stimulated to produce TNF-α by HMGB1 ([…]) in the presence or absence of either TTP4000 or anti-RAGE antibodies. Under the conditions used in the assay, HMGB1 should be the only inducer of TNF-α. The amount of TNF-αsecreted by the THP-1 cells was measured 24 hours after the addition of the proteins to the cell culture using a commercially available ELISA kit for TNF-α (R&D Systems, Minneapolis, Minn.).

In test [2] the test system is mouse model of AD. Put plainly: APP transgenic mouse model of AD. It is filed as in vivo, mice. The protocol: Experiments were performed to evaluate whether TTP-4000 could affect amyloid formation and cognitive dysfunction in a mouse model of AD. The experiments utilized transgenic mice expressing the human Swedish mutant amyloid precursor protein (APP) under the control of the PDGF-B chain promoter. Over time, these mice generate high levels of the RAGE ligand, amyloid beta (Aβ).
The APP mice (male) used in this experiment were designed by microinjection of the human APP gene (with the Swedish and London mutations) into mouse eggs under the control of the platelet-derived growth factor B (PDGF-B) chain gene promoter. The mice were generated on a C57BL/6 background and were developed by Molecular Therapeutics Inc. Animals were fed ad libitum and maintained by brother sister mating. The mice generated from this construct develop amyloid deposits starting at 6 months of age. Animals were aged for 6 months and then maintained for 90 days and sacrificed for amyloid quantification.
APP transgenic mice were administered vehicle or TTP4000 every other day [qod (i.p.)] for 90 days starting at 6 months of age. At the end of the experiment, animals were sacrificed and examined for Aβ plaque burden in the brain (i.e., plaque number). A 6-month control APP group was used to determine the baseline of amyloid deposits. In addition, at the end of the study, the animals were subjected to behavioral (Morris water maze) analysis. The investigators were blinded to the study compounds. Samples were given to the mice at 0.25 ml/mouse/every other day.
For histological examination, the animals were anesthetized with an intraperitoneal injection (IP) of sodium pentobarbital (50 mg/kg). The animals were transcardially perfused with 4° C., phosphate-buffered saline (PBS) followed by 4% paraformaldehyde. The brains were removed and placed in 4% paraformaldehyde over night. The brains were processed to paraffin and embedded. Ten serial 30-μm thick sections through the brain were obtained. Sections were subjected to primary antibody overnight at 4° C. (Aβ peptide antibody) in order to detect the amyloid deposits in the brain of the transgenic animals (Guo et al., J. Neurosci., 22:5900-5909 (2002)). Sections were washed in Tris-buffered saline (TBS) and secondary antibody was added and incubated for 1 hour at room temperature. After washing, the sections were incubated as instructed in the Vector ABC Elite kit (Vector Laboratories) and stained with […] (DAB). The reactions were stopped in water and cover-slipped after treatment with xylene. The amyloid area in each section was determined with a computer-assisted image analysis system, consisting of a Power Macintosh computer equipped with a Quick Capture frame grabber card, Hitachi CCD camera mounted on an Olympus microscope and camera stand. NIH Image Analysis Software, v. 1.55 was used. The images were captured and the total area of amyloid was determined over the ten sections. A single operator blinded to treatment status performed all measurements. Summing the amyloid volumes of the sections and dividing by the total number of sections was done to calculate the amyloid volume.
For quantitative analysis, an enzyme-linked immunosorbent assay (ELISA) was used to measure the levels of human total Aβ, Aβtotal and Aβ1-42 in the brains of APP transgenic mice (Biosource International, Camarillo, Calif.). Aβtotal and Aβ1-42 were extracted from mouse brains by guanidine hydrochloride and quantified as described by the manufacturer. […]

Where [3] appears, read: treated for 3 months, qod i.p., versus vehicle and human IgG1.

B1: TTP-4000: four domain RAGE fusion protein: human RAGE N-terminal sequence (to position 251) linked to human IgG Fc (γ1) without hinge; SEQ ID NO: 34/56 (protein)
chain: QNITARIGEPLVLKCKGAPKKPPQRLEWKLNTGRTEAWKVLSPQGGGPWDSVARVLPNGSLFLPAVGIQDEGIFRCQAMNRNGKETKSNYRVRVYQIPGKPEIVDSASELTAGVPNKVGTCVSEGSYPAGTLSWHLDGKPLVPNEKGVSVKEQTRRHPETGLFTLQSELMVTPARGGDPRPTFSCSFSPGLPRHRALRTAPIQPRVWEPVPLEEVQLVVEPEGGAVAPPSVFLFPPKPKDTLMISRTPEVTCVVVDVSHEDPEVKFNWYVDGVEVHNAKTKPREEQYNSTYRVVSVLTVLHQDWLNGKEYKCKVSNKALPAPIEKTISKAKGQPREPQVYTLPPSRDELTKNQVSLTCLVKGFYPSDIAVEWESNGQPENNYKTTPPVLDSDGSFFLYSKLTVDKSRWQQGNVFSCSVMHEALHNHYTQKSLSLSPGK
On to B1, for which the “inhibition of HMGB1-induced TNF-α production” value in test [1] is given as “to a greater extent than does the anti-RAGE antibody”. The “inflammatory cytokines IL-1 and TNF-α” value in test [2] (data not shown) is “can reduce the inflammatory cytokines IL-1 and TNF-α”. Also, in test [2] (setting [3]), the “Aβ plaques in the brain” value is listed as “fewer Aβ plaques” and the “cognitive dysfunction (Morris water maze)” value was “less cognitive dysfunction”.

The record behind these values is US8344120B2, “Nucleic acid molecules encoding rage fusion proteins” (TransTech Pharma, Inc., priority 2006, dated 2013).
